Results on six molecules are retold here after patent US20230235054A1 (BIOATLA, published 2023).

Assay [1] concerns the target T1, cynoNectin4 antigen (cynomolgus (cyno), UniProt A0A2K5WES1 32-349).
T1 construct: construct not described; also called cynomolgus (cyno) Nectin-4
T1 sequence: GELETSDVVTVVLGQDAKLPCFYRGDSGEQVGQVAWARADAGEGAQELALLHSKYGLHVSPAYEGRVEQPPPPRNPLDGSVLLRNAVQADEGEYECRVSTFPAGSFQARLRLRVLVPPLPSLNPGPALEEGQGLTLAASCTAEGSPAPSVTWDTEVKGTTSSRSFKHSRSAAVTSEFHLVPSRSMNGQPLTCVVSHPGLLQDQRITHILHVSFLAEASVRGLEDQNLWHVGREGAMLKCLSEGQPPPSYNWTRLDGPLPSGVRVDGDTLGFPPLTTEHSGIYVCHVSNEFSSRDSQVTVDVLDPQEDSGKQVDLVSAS
Kind of assay: ELISA, coated antigen, PSB pH 6.0. The method, then:
1) Coat ELISA plates with 100 μL of 1 μg/mL recombinant human Nectin4 antigen or cynoNectin4 antigen in carbonate-bicarbonate coating buffer. […] 2) Cover plates with sealing film and incubate overnight at 4° C. [0444] 3) Decant plates and tap out residual liquid on a stack of paper towels. [0445] 4) Wash wells twice by dispensing 200 μL of pH 6.0 or pH 7.4 ELISA incubation buffer to the wells and completely aspirate the contents. [0446] 5) Add 200 μL of pH 6.0 or pH 7.4 ELISA incubation buffer to the wells. Cover with sealing film and place the plate onto a plate shaker set to 50 rpm for 60 minutes at room temperature. [0447] 6) Decant plates and tap out residual liquid on a stack of paper towels. […] 7) Serially dilute test articles in 3-fold dilutions starting at 3000 ng/mL in pH 6.0 or pH 7.4 ELISA incubation buffer. […] 8) Add 100 μL/well of diluted test articles to the plates [0450] 9) Cover with sealing film and place the plates onto a plate shaker set to 50 rpm for 60 minutes at room temperature. [0451] 10) Decant plates and tap out residual liquid on a stack of paper towels. [0452] 11) Wash wells three times by dispensing 200 μL of pH 6.0 or pH 7.4 ELISA wash buffer to the wells and completely aspirate the contents. […] 12) Dilute the HRP secondary antibody at 1:2500 in pH 6.0 or pH 7.4 ELISA incubation buffer. [0454] […] 14) Cover with sealing film and place the plates onto a plate shaker set to 50 rpm for 60 minutes at room temperature. […] 15) Decant plates and tap out residual liquid on a stack of paper towels. […] 16) Wash wells three times by dispensing 200 μL of pH 6.0 or pH 7.4 ELISA wash buffer to the wells and completely aspirate the contents. [0458] 17) Dispense 50 μL per well of the TMB substrate solution into all wells of the plates.

Assay [2] addresses T2, huNectin4-His (human, UniProt Q96NY8 32-349).
T2 construct: Immobilized on the SPR chip; also called humanNectin4; human Nectin4; not shown: His tag
T2 sequence (looked up): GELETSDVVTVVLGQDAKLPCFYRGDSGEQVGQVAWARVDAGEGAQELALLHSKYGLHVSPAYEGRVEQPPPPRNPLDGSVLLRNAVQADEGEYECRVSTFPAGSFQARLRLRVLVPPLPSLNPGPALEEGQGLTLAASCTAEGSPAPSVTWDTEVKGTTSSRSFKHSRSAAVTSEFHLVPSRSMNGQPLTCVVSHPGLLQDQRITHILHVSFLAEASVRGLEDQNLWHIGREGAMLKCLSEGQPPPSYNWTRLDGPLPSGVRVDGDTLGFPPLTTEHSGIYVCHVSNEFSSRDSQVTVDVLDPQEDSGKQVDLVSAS
Kind of assay: SPR, huNectin4-His immobilized, pH 6.5. How it is done:
(§1) Binding kinetics of anti-Nectin4 antibodies were measured by surface plasmon resonance using a SPR2/4 instrument (Sierra Sensors, Hamburg, Germany) and flat amine sensor chips. The SPR sensor contained four flow cells (FC1-FC4), each of which was addressed individually or in groups. huNectin4-His was immobilized in FC2, and cynoNectin4-mFc in FC4. No protein was immobilized in FC1 and FC3 which were used as control surfaces for FC2 and FC4, respectively.
(§2) All injections were done at a flow rate of 25 μL/min at 25° C. The sensor surface was activated with 1-ethyl-3-(3-dimethylaminopropyl)-carbodiimide (EDC) and N-hydroxysuccinimide (NHS) (200 mM/50 mM) for 480 seconds. HuNectin4-His (2 μg/mL in 10 mM NaAc, pH4.5) was injected for 480s and the surface was inactivated by injecting 1M ethanolamine-HCl for 480s. CynoNectin4 was immobilized using the same conditions as described for huNectin4-His, except that the cynoNectin4 was diluted into 10 mM NaAc buffer having pH 5.0. The control surface was activated and deactivated using the same conditions, but without injecting protein. PBST buffer (PBS pH 7.4 with 0.05% TWEEN20™) was used as running buffer for the surface preparation. The running solution was switched to PBST with 30 mM sodium bicarbonate with the pH adjusted as indicated in the figures before the analyte injections. The instrument was equilibrated with the running solution for one hour before the first analyte injection.
(§3) The off-rate was measured for 360s. The chip surface was regenerated after each cycle of interaction analysis by injecting 6 μL of 10 mM glycine (pH 2.0). Flow cells 1 and 3 without immobilized protein were used as control surfaces for reference subtraction.
On the technique in general: Surface plasmon resonance follows binding to a sensor surface in real time, without labels.

The target of assay [3] is T3, cynoNectin4-mFc (cyno, UniProt A0A2K5WES1 32-349).
T3 construct: Immobilized on the SPR chip; also called cyanoNectin4; not shown: mFc (mouse Fc)
T3 sequence: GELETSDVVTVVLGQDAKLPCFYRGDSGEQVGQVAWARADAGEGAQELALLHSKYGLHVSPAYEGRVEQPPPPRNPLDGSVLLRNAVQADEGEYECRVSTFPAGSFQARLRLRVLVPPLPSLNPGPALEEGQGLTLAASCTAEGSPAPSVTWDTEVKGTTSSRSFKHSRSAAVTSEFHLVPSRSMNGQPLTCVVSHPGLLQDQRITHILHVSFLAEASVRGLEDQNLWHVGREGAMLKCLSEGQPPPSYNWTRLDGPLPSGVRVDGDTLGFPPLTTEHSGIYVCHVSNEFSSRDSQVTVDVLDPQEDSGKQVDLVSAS
The assay is described as follows: SPR, cynoNectin4-mFc immobilized, pH 6.0. How it is done: as §1, §2, §3

Assay [4] concerns the target T4, human Nectin-4 on cells (human, UniProt Q96NY8 32-510).
T4 construct: whole, on cells; also called HEK293 cells expressing human Nectin-4; T47D cells that express human Nectin-4
T4 sequence (looked up): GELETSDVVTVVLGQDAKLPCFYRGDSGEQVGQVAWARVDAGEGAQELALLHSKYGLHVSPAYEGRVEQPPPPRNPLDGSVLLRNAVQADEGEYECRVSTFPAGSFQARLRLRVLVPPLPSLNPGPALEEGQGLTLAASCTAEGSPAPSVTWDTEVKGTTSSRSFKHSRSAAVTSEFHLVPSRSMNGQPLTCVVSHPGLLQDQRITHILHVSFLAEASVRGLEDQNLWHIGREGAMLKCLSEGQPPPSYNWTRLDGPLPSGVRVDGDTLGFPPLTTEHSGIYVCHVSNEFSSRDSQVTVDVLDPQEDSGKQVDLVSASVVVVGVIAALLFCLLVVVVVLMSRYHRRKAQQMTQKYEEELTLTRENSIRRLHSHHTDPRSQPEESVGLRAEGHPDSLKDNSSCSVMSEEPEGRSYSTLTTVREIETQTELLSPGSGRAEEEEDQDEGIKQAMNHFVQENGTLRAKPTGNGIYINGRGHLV
The assay is described as follows: FACS, HEK293 cells expressing human Nectin-4. The method, then:
FACS analysis was carried out using HEK293 cells expressing human Nectin-4.
(Flow cytometry measures light scatter and fluorescence of single cells or particles in a stream.)

B1: BAP-143-wildtype (antibody, V domains shown)
VH: EVQLVESGGGLVQPGGSLRLSCAASGFTFSSYNMNWVRQAPGKGLEWVSYISSSSSTIYYADSVKGRFTISRDNAKNSLSLQMNSLRDEDTAVYYCARAYYYGMDVWGQGTTVTVSS
VL: DIQMTQSPSSVSASVGDRVTITCRASQGISGWLAWYQQKPGKAPKFLIYAASTLQSGVPSRFSGSGSGTDFTLTISSLQPEDFATYYCQQANSFPPTFGGGTKVEIK
notes: 150 kDa used in SPR; also called BAP143-00-00; benchmark (BM)
A word on the EC50: it is the concentration giving half of the maximal effect. Read a low EC50 as higher potency in that assay. For orientation: Kd means a measure of binding affinity in units of concentration. A high value points to lower affinity. The molecule B1 gave an EC50 in assay [1] of 0.0146 µg/mL. Moreover, the figures for the Kd in assay [2] and in assay [3] were 0.102 nM and 0.311 nM, respectively.

B2: BAP-143-06-24-16 (antibody, V domains shown)
VH: EVQLVQSGAEVKKPGATVKISCKVSGFTFSSYNMNWIRQSPSRGLEWLGYISSSSSTIYYADSVKGRFTISRDNSKNTLYLQMNSLRAEDTAVYYCARAYYYGDDVWGQGTLVTVSS
VL: DIQMTQSPSSVSASVGDRVTITCHASQGISGWLAWYQQKPGKAPKFLIYAASTLQSGVPSRFSGSGSGTDFTLTISSLQPEDFATYYCQQANSFPPTFGGGTKVEIK
notes: Used as a conjugate with a linker payload (CAB ADC)
A word on the koff: it is the first-order rate constant of dissociation. What is called kon is the second-order rate constant of association. Higher therefore signals faster complex formation. With B2, in assay [1], it took 0.0261 µg/mL to reach a half-maximal effect (EC50). In assay [2], this molecule gave a dissociation constant Kd of 0.00487 nM, a koff of 9.92e-06 s⁻¹ and a kon of 2.04e+06 M⁻¹ s⁻¹. In assay [3], this molecule gave a Kd of 0.207 nM, a koff of 0.000579 s⁻¹ and a kon of 2.8e+06 M⁻¹ s⁻¹. In addition, in assay [4], the “Ratio (pH 7.4/6.0) of EC50” value came out at 1.4.

B3: BAP-143-06-33-03 (antibody, V domains shown)
VH: QVQLVQSGAEVKKPGASVKVSCKASGFTFSSYNMNWVRQARGQRLEWIGYISSSSSTIYYADSVKGRFTISRDNSKNTLYLQMNSLRAEDTAVYYCARAYYYGMDKWGQGTLVTVSS
VL: DIQMTQSPSSVSASVGDRVTITCRASQGISGWLAWYQQKPGKAPKFLIYAASTLQSGVPSRFSGSGSGTDFTLTISSLQPEDFATYYCQQANSEPPTFGGGTKVEIK
notes: as for B2
For the molecule B3, the EC50 in assay [1] worked out at 0.0395 µg/mL. The “Ratio (pH 7.4/6.0) of EC50” value in assay [4] came to 2.8.

B4: BAP-143-06-33-16 (antibody, V domains shown)
VH: EVQLVQSGAEVKKPGATVKISCKVSGFTFSSYNMNWIRQSPSRGLEWLGYISSSSSTIYYADSVKGRFTISRDNSKNTLYLQMNSLRAEDTAVYYCARAYYYGDDVWGQGTLVTVSS
VL: DIQMTQSPSSVSASVGDRVTITCRASQGISGWEAWYQQKPGKAPKFLIYAASTLQSGVPSRFSGSGSGTDFTLTISSLQPEDFATYYCQQANSFPPTFGGGTKVEIK
notes: as for B2
Turning to B4, the EC50 in assay [1] was 0.0384 µg/mL. In addition, in assay [2], binding was characterised by a dissociation constant (Kd) of 0.0282 nM, the koff worked out at 5.94e-05 s⁻¹ and the kon stood at 2.11e+06 M⁻¹ s⁻¹. Further, in assay [3], the Kd was found to be 0.187 nM, the koff is 0.000273 s⁻¹ and the kon was 1.46e+06 M⁻¹ s⁻¹. In addition, the “Ratio (pH 7.4/6.0) of EC50” value in assay [4] amounted to 1.5.

B5: BAP-143-00-01 (antibody, V domains shown)
VH: EVQLVESGGGLVQPGGSLRLSCAASGFTFSSYNMNWVRQAPGKGLEWVSYISSSSSTIYYADSVKGRFTISRDNAKNSLSLQMNSLRDEDTAVYYCARAYYYGMDVWGQGTTVTVSS
VL: DIQMTQSPSSVSASVGDRVTITCRASQGISGWEAWYQQKPGKAPKFLIYAASTLQSGVPSRFSGSGSGTDFTLTISSLQPEDFATYYCQQANSFPPTFGGGTKVEIK
notes: as for B2
In assay [2], B5 registered a Kd of 0.785 nM, a koff of 0.000474 s⁻¹ and a kon of 605000 M⁻¹ s⁻¹. In assay [3], this molecule returned an equilibrium dissociation constant (Kd) of 1.85 nM, a koff of 0.00142 s⁻¹ and a kon of 769000 M⁻¹ s⁻¹. Also, in assay [4], the “Ratio (pH 7.4/6.0) of EC50” value was determined as 2.2.

B6: BAP-143-07-03-12 (antibody, V domains shown)
VH: EVQLVESGGGLVQPGGSLRLSCAASGFTFSSYNMNWVRQAPGKGLEWVSYISSSSSTIYYADSVKGRFTISRDNAKNSLSLQMNSLRDEDTAVYYCARAYYYGMDKWGQGTTVTVSS
VL: DIQMTQSPSSVSASVGDRVTITCRASQGISGWEAWYQQKPGKAPKFLIYAASTLQSGVPSRFSGSGSGTDFTLTISSLQPEDFATYYCQQANSFPPTFGGGTKVEIK
notes: as for B2
Take B6: a half-maximal response in assay [1] (EC50) required 0.0239 µg/mL. In assay [2], this molecule yielded a Kd of 0.641 nM, a koff of 0.000483 s⁻¹ and a kon of 754000 M⁻¹ s⁻¹. In assay [3], this molecule came in with a Kd of 1.15 nM, a koff of 0.00113 s⁻¹ and a kon of 983000 M⁻¹ s⁻¹. Moreover, the “Ratio (pH 7.4/6.0) of EC50” value in assay [4] was determined as 2.
